# Data as given in patent publication US20210292423A1.
# Legend:
# [1] = target: human CD123 (IL3RA) on cells (human) (UniProt P26951); assay: cell-based or functional assay
# [2] = target: human CD3 (TCR complex) on primary human T cells or Jurkat cells (human) (UniProt P07766); assay: flow cytometry, Jurkat E6-1
# [3] = target: Macaca fascicularis CD3 (TCR complex) on cyno HSC-F cells (Macaca fascicularis) (UniProt Q95LI5); assay: flow cytometry, cyno HSC-F
# [4] = target: Macaca fascicularis CD3ε/δ-Fc fusion protein (Macaca fascicularis) (UniProt Q95LI8); assay: SPR Biacore, ratio against human CD3εδ
# Sequence of Macaca fascicularis CD3ε/δ-Fc fusion protein (Macaca fascicularis) (chain, as listed by the source mutant, chain 1 of 2): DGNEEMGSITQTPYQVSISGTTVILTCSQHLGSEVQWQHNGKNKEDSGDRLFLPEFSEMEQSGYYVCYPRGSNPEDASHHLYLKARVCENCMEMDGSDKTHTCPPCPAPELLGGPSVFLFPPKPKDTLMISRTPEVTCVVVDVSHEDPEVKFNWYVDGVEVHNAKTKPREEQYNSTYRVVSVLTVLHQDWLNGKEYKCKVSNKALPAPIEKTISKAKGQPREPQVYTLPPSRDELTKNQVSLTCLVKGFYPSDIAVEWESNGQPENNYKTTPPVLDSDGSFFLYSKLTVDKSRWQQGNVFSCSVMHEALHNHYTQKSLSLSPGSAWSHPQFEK
# Sequence of Macaca fascicularis CD3ε/δ-Fc fusion protein (Macaca fascicularis) (Q95LI8 22-105, stated change not applied, chain 2 of 2): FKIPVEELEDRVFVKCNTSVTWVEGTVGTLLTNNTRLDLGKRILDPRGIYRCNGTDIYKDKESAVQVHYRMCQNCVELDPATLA
# Sequence of human CD3 (TCR complex) on primary human T cells or Jurkat cells (human) (P07766 23-207, one chain of several): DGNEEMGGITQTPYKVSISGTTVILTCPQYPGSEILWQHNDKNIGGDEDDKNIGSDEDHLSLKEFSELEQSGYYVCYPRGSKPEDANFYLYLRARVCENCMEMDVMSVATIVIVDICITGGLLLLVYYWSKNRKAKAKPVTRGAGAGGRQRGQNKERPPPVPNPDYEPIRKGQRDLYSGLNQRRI
# Sequence of Macaca fascicularis CD3 (TCR complex) on cyno HSC-F cells (Macaca fascicularis) (Q95LI5 22-198, one chain of several): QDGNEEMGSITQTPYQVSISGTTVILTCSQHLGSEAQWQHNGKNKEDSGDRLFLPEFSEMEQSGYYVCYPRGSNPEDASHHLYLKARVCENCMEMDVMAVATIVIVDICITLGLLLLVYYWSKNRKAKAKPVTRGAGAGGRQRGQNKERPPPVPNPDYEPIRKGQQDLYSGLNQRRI
# Sequence of CODV-Fab 7G3 × I2C (bispecific antibody) (light, part): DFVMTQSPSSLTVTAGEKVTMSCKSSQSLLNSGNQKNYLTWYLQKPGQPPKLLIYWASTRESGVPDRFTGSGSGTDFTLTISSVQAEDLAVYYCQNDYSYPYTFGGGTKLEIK
# Sequence of CODV-Fab 7G3 × I2C (bispecific antibody) (heavy, part): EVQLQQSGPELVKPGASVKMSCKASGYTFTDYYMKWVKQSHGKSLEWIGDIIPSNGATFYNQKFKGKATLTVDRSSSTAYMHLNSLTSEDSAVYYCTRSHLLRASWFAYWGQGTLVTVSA
# Sequence of human CD123 (IL3RA) on cells (human) (P26951 19-378): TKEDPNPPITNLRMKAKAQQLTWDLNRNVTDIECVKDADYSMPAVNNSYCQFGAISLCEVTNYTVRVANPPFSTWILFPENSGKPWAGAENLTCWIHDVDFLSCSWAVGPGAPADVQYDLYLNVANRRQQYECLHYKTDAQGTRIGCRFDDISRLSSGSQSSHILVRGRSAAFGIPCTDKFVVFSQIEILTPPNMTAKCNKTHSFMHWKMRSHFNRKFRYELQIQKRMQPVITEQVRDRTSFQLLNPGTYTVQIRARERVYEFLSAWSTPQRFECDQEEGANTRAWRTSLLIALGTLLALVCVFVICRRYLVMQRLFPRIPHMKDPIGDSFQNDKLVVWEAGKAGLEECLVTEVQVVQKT
substance,measurement,setting,value
CODV-Fab 7G3 × I2C (bispecific antibody),"Activity EC50 [ng/ml], cytotoxic assay on THP-1 with human T cells",[1],20 ng/mL
FN18 (antibody),geometric mean of relative fluorescence intensity (rfu),[2],7 rfu
same,geometric mean of relative fluorescence intensity (rfu),[3],1260 rfu
SP-34 (antibody),Ratio KD(cy)/KD(hu),[4],5
